Measured values published in US20250177548A1, “FUSOGENIC PEPTIDE COMPOSITIONS AND METHODS OF CARGO DELIVERY” (CLEMSON UNIVERSITY, priority 2022, published 2025).
Non-standard residues stand in square brackets, D forms with d. Primed or numbered codes have the meaning given here. No end group written: not given here. pG″ = pyro form of the N-terminal glycine (pyroglycine); pG = not defined here

T1: luteinizing hormone releasing hormone (LHRH) receptor (UniProt P30968 1-328, limits assumed)
T1 sequence (looked up): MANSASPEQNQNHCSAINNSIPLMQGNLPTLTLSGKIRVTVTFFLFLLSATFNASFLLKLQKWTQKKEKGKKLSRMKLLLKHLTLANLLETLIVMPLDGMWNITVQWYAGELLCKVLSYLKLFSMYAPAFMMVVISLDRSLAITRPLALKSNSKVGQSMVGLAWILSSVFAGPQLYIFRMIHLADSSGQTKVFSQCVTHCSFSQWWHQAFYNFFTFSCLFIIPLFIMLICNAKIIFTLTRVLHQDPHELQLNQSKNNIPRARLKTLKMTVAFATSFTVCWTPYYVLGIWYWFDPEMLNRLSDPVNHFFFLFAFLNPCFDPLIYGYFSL


Assays:
RNase A = assay: gel assay of siRNA protection from RNase A degradation; type: in vitro ADME; settings: 1 hour, several N:P ratios
Description: (§1) Gel Shift Assays. DIVA3, DIV3H, and DIV3W (all three denoted as DIV3 (X)) peptides suspended in RNase-free water (10 μM), were thawed, and kept on ice prior to complexation with 10 μM of negative control siGENOME non-targeting siRNA #5 (siNT, GE Healthcare Dharmacon, Lafayette, CO) in RNase-free water and incubated for 20 minutes at room temperature to allow the formation of DIV3 (X)-siNT complexes. Various molar ratios of peptides were complexed with siNT at increasing N:P molar ratios to determine the minimum molar ratio necessary to completely complex free siRNAs using an electrophoretic mobility shift assay. To determine the ability of each peptide variant to protect siRNAs from degradation, DIV3 (X)-siNT complexes or siNT alone was left untreated or incubated with either 50% v/v FBS or 5 μg/mL RNase A at 37° C. for one hour. Next, complexes were dissociated using 6% sodium dodecyl sulfate (SDS). Samples were added to a 2% agarose gel and run at 100 V. Gels were stained with ethidium bromide, destained with Milli-Q water, and imaged using a ChemiDoc XRS imager (Bio-Rad, Hercules, CA).
(§2) Characterization of Nanoparticle Size and Stability. To determine the minimum molar ratio necessary to completely complex free siRNAs, increasing N:P molar ratios of LHRH, DIV3W, and LHRH-DIV3W peptide were complexed with siRNAs and electrophoresed using a electrophoretic mobility shift assay. Molar ratios, shown as N:P, are representations of the molar amine peptide content in relation to 1 mole of phosphate group siRNA content. To determine the ability of the peptides to protect siRNAs from serum- or RNase-mediated degradation, LHRH and LHRH-DIV3W complexes were formed in RNase-free water with siNT at increasing N:P molar ratios and incubated at 37° C., 5% CO2, 50% v/v FBS, 5 μg/mL RNase A, or 50% v/v RNase free water for 1 hour. Peptide/siRNA complexes were dissociated using 6% sodium dodecyl sulfate (SDS) prior to electrophoresis in a 2% agarose gel run at 100 V. Gels were stained with ethidium bromide, washed with Milli-Q water, and imaged with a BioRad ChemiDoc XRS imager (BioRad, Hercules, CA).
(§3) Peptides VA-LD and GF-LD, comprising the cleavable linker VA or GLFG, respectively, between the LHRH target sequence and the DIV3W peptide, and non targeting siRNA were electrostatically complexed at increasing N:P ratios then subjected to agarose gel electrophoresis to determine optimal siRNA binding for each peptide. […] Peptide-siRNA nanocomplexes at increasing N:P ratios for peptides for VA-LD (FIG. 30A) and GF-LD (FIG. 30C) were incubated in either Rnase A enzyme or in 50% fetal bovine serum (FBS) for 1 h, dissociated using SDS then subjected to gel electrophoresis to visualize siRNA bands. Gels showing increasing N:P ratios of peptide:siRNA for VA-LD (FIG. 30B) and GF-LD (FIG. 30D) from 20:1 to 80:1 N:P; white bands are indicative of intact siRNA

[1] = gel assay of siRNA protection from degradation in 50% serum; type: in vitro ADME; settings: 50% FBS, 1 hour, several N:P ratios
Description: as §1, §2, §3

ES2 ovarian cancer cells [2] = assay: cellular uptake of cy5 siRNA, microscopy and flow cytometry; type: cell-based, human; settings: ES2, 4 hours, N:P ratios of 20:1-40:1
Description: Peptides, VA-LD and GF-LD, and cy5 labeled non targeting siRNA were electrostatically complexed at increasing N:P ratios and delivered to human ovarian ES2 cells for 4 hours.

ES2 ovarian cancer cells [3] = tested on: ES2 ovarian cancer cells
Description: VA-LD and GF-LD peptides were electrostatically complexed with and non targeting siRNA at increasing N:P ratios. Complexes were delivered to human ovarian ES2 cells for 48 hours and analyzed via MTS assay.

CSNK2A1 mRNA = assay: qPCR of CSNK2A1 mRNA in OVCAR3 cells; type: cell-based; settings: OVCAR3, 48 hours
Description: qRT-PCR. Cells were seeded at 50,000 cells per well and treated with siRNA targeting CSNK2A1 (siCSNK2A1 #s3638, Thermo Fisher Scientific) at increasing N:P ratios and incubated for a total of 48 hours in McCoys 5A/DMEM-10% FBS. Treated cells were washed with 1×PBS at 24 hours and fresh media was added. RNAisolation was completed using a Qiagen Mini-RNeasy Kit (Qiagen, Hilden, Germany) according to the manufacturer's protocol. RNA isolation quality and quantity were measured through the Gen5 protocol using a Take3 plate (BioTek). RNA was reverse-transcribed using the QuantiTect Reverse Transcription kit (Qiagen). Quantitative real-time PCR was completed with a QuantStudio 3 qPCR system (Applied Biosystems) using Applied Biosystems TaqMan FAST Master Mix (Thermo Fisher) and CSNK2A1 (ID #Hs00751002_s1) and 18S (ID #Hs99999901_s1) predesigned TaqMan probes, according to the manufacturer's protocol.
Gene and Protein Knockdown. Bioactivity of siRNAs was determined via qPCR and western blot analysis. OVCAR3 or CAOV3 cells were seeded at 50,000 cells per well as previously described and treated with siRNA targeting CSNK2A1 and siNT at N:P ratios 30:1, 40:1, 50:1, 60:1, and 70:1. LHRH-DIV3W peptide complexed with either siNT or siCSNK2A1 was incubated for a total of 48 hours in RPMI 1640/DMEM-10% FBS, with one media exchange occurring after the 24-hour timepoint. Treated cells were washed with 1×PBS at 24 hours and fresh media was added. RNA isolation was completed using a Qiagen Mini-RNeasy Kit (Qiagen, Hilden, Germany) according to the manufacturer's protocol. RNA isolation quality and quantity was measured through the Gen5 protocol using a Take3 plate (BioTek). RNA was reverse transcribed using the QuantiTect Reverse Transcription kit (Qiagen) according to the manufacturer's protocol. Quantitative real-time PCR was completed with a QuantStudio 3 qPCR system (Applied Biosystems, Waltham, MA) using Applied Biosystems TaqMan FAST Master Mix (Thermo Fisher) and CSNK2A1 (ID #Hs00751002_s1) and 18S (ID #Hs99999901_s1) predesigned TaqMan probes according to the manufacturer's protocol.

[4] = dynamic light scattering, size and zeta potential of peptide/siRNA complexes; type: physicochemical; settings: for zeta potential: DIV3 (X) peptide/siRNA complexes
Description: Dynamic Light Scattering and Transmission Electron Microscopy. DIV3 (X)-siNT complexes were prepared at 2 mg/mL in RNase-free water. Hydrodynamic size and surface charge of the peptide/siRNA complexes were determined using a Nano ZS Zetasizer (Malvern Pananalytical, Malvern, UK). All data were recorded using Malvern's Zetasizer software.
To determine nanoparticle size and zeta potential, peptides resuspended in RNase-free water (10 μM) were thawed and kept on ice prior to complexation with 10 μM of siNT in RNase-free water and incubated for 20 minutes at room temperature to form DIV3W-siNT and LHRH-DIV3W-siNT complexes. Peptide complexes were prepared at 2 mg/mL in RNase-free water. Hydrodynamic size and surface charge analysis was conducted using a Malvern Nano ZS Zetasizer (Malvern Panalytical, Malvern, UK). All data was analyzed using Malvern's Zetasizer software.

OVCAR3 cells [5] = assay: cellular uptake of labeled siRNA by flow cytometry; type: cell-based; settings: for uptake efficiency: OVCAR3, siNT-DY547, 4 hours; for uptake efficiency, tandem vs LHRH peptide: FIG. 10E, 4 hr, cell line not stated
Description: Cellular Uptake. OVCAR3 and CAOV3 cells were prepared at 50,000 cells per well in a 24-well plate. […] Post-incubation, media was aspirated and cells were washed with 1× PBS. To counterstain the nuclei, SuperSignal NucBlue Hoechst stain (Thermo Fisher, Waltham, MA) was added to the cells for 30 minutes, followed by an additional 1×PBS wash. Subsequent imaging was performed using an EVOS FL Microscope (Thermo Fisher) at 10× magnification. For flow cytometric analysis, cells were detached, resuspended in 1× PBS, and analyzed using an Attune NXT Acoustic flow cytometer (Invitrogen, Carlsbad, CA) with the blue laser line and BL2 (574/26 nm) channel.
Cellular Uptake and Targeting Specificity. Observation of cell uptake was performed by seeding OVCAR3 and CAOV3 cells at a density of 50,000 cells per well in a 24-well plate. LHRH and LHRH-DIV3W peptides were complexed with […] as previously described and delivered to cells at 20:1 to 80:1 N:P ratios. Each cell line was incubated with tandem peptide complexes for both 4- and 24-hour treatment periods. Following incubation, cell media was removed, and cells were washed with 1× PBS prior to the addition of 500 μL of 1×PBS and SuperSignal NucBlue Hoescht 33342 nuclear stain (Thermo Fisher, Waltham, MA). Cellular imaging was completed using an EVOS FL Microscope (Thermo Fisher) at 10×, 20×, and 40× magnification. Flow cytometry was completed after cell imaging and cells were trypsinized, resuspended in 1×PBS, and analyzed with an Attune NXT Acoustic Flow Cytometer (Invitrogen) with the red laser line and RL2 […] channel.

OVCAR3 cells [6] = tested on: OVCAR3 cells
Description: (§4) Cells were seeded at 10,000 cells per well with complete culture media in a 96-well plate and incubated overnight to allow the cells to attach. DIV3 (X) peptides were complexed with siNT at 40:1 to 80:1 N:P molar ratios. DIV3 (X)-siNT complexes were incubated with OVCAR3 or CAOV3 cells at a final concentration of 100 nM siRNA and 10% FBS for 24 hours. Media was then aspirated, cells were washed with 1× phosphate-buffered saline (PBS), and fresh media with 10% FBS was added to each well and incubated another 24 hours.
Viability was measured using an MTS Assay performed with CellTiter 96 AQueous One Solution Cell Proliferation Assay (Promega, Madison, WI). Assay reagent was added according to the manufacturer's protocol, and cells were incubated for 4 hours. Absorbance was read using a BioTek Synergy LX (BioTek, Winooksi, VT) plate reader at 490 nm. An MTS cell viability assay was also conducted as described for OVCAR3 and CAOV3 cells treated with DIV3W-siRNA complexes.
OVCAR3 or CAOV3 cells were seeded at 10,000 cells per well with complete culture media in a transparent 96-well plate and incubated overnight to allow the cells to attach. LHRH and LHRH-DIV3W peptides were delivered to cells without siRNA cargo. After 24 hours of incubation the media was exchanged and after another 24-hour incubation at 37° C. in 5% CO2, viability was measured using an MTS Assay performed with the CellTiter 96 AQueous One Solution Assay (Promega, Madison, WI). Assay reagent was added according to the manufacturer's protocol and cells were incubated for 4 hours. Absorbance was read using a BioTek Synergy LX (BioTek, Winooksi, VT) plate reader at 490 nm.

[7] = target: T1, luteinizing hormone releasing hormone …; assay: cell-based or functional assay

Description for CAOV3 cells: as §4
Viability was measured using an MTS Assay performed with CellTiter 96 AQueous One Solution Cell Proliferation Assay (Promega, Madison, WI). Assay reagent was added according to the manufacturer's protocol, and cells were incubated for 4 hours. Absorbance was read using a BioTek Synergy LX (BioTek, Winooksi, VT) plate reader at 490 nm. […]
OVCAR3 or CAOV3 cells were seeded at 10,000 cells per well with complete culture media in a transparent 96-well plate and incubated overnight to allow the cells to attach. […] After 24 hours of incubation the media was exchanged and after another 24-hour incubation at 37° C. in 5% CO2, viability was measured using an MTS Assay performed with the CellTiter 96 AQueous One Solution Assay (Promega, Madison, WI). […] Absorbance was read using a BioTek Synergy LX (BioTek, Winooksi, VT) plate reader at 490 nm.

Molecule	intact siRNA after incubation with RNase A (RNase A)	intact siRNA after incubation in 50% serum [1]	delivery of cy5 siRNA (ES2 ovarian cancer cells [2])	biocompatibility of peptide/non-targeting siRNA complexes (ES2 ovarian cancer cells [3])	zeta potential [4]	uptake efficiency (OVCAR3 cells [5]; 80:1)	further results
pGHWSY-LLRPGGGVAWEADIVADIVWDIVADIVAGGG-RRRRRRRRR ([pG]HWSY[dL]LRPGGGVAWEADIVADIVWDIVADIVAGGG[dR][dR][dR][dR][dR][dR][dR][dR][dR]; reading uncertain) [VA-LD]	protect siRNA in physiologically relevant environments	protect siRNA in physiologically relevant environments	deliver siRNA to ES2 ovarian cancer cells	biocompatible			
WEADIVADIVADIVAGGG-(d) RRRRRRRRR (WEADIVADIVADIVAGGG[dR][dR][dR][dR][dR][dR][dR][dR][dR]) [DIVA3]	Reduction of intact siRNA signal	Reduction of intact siRNA signal			~20 mV	63.6%	CSNK2A1 mRNA silencing (knockdown) (CSNK2A1 mRNA; 60:1, vs siNT complex): 47%
pGHWSY-LLRPGGGGFLGWEADIVADIVWDIVADIVAGGG-RRRRRRRRR ([pG]HWSY[dL]LRPGGGGFLGWEADIVADIVWDIVADIVAGGG[dR][dR][dR][dR][dR][dR][dR][dR][dR]; reading uncertain) [GF-LD]	protect siRNA in physiologically relevant environments	protect siRNA in physiologically relevant environments	deliver siRNA to ES2 ovarian cancer cells	biocompatible			
WEADIVADIVHDIVADIVAGGG-(d) RRRRRRRRR (WEADIVADIVHDIVADIVAGGG[dR][dR][dR][dR][dR][dR][dR][dR][dR]) [DIV3H]		Reduction of intact siRNA signal			~30 mV	52.1%	CSNK2A1 mRNA silencing (knockdown) (CSNK2A1 mRNA; 80:1, vs siNT complex): 72%; hydrodynamic diameter ([4]; DIV3 (X) peptide/siRNA complex at 60:1 ratio): around 100 nm
pGHWSY-(d) L-LRP ([pG]HWSY[dL]LRP; reading uncertain) [LHRH, reference compound]							cytotoxicity of peptide alone (CAOV3 cells): biocompatibility; uptake efficiency, tandem vs LHRH peptide (OVCAR3 cells [5]; 40:1): 34.3%±0.56%; uptake efficiency, tandem vs LHRH peptide (OVCAR3 cells [5]; 60:1): 34.83%±2.75%; uptake efficiency, tandem vs LHRH peptide (OVCAR3 cells [5]; 80:1): 33.87%±1.63%; cytotoxicity of peptide alone (OVCAR3 cells [6]): biocompatibility
[pG″]HWSY[dL]LRPGGGGGWEADIVADIVWDIVADIVAGGG[dR][dR][dR][dR][dR][dR][dR][dR][dR] [LHRH-DIV3W tandem peptide]							cell viability (MTS), OVCAR3 cells, peptide without siRNA at the 20:1 ratio [7]: 110%
